Assay results as given in patent US20180237497A1 (CANCER RESEARCH TECHNOLOGY, published 2018).
Positions count from the first letter of the chain named. Names and notes keep the numbering of the source.

Assays:
[1] = molecular target: T1, human IGF2^1-67 (mature insulin-like growth factor 2) (human, UniProt P01344 25-91, biotinylated (site not stated) where immobilised on the chip (Tables 1-4)); assay: cell-based or functional assay
[2] = molecular target: T2, pro-IGF2^1-156 (UniProt P01344 25-180); assay: SPR kinetic, Fc fusion captured by anti-human IgG, pH 7.4
T2 construct: range 1-156
Protocol: (§1) SPR analysis of the interaction of recombinant IGF1 and IGF2 forms with Fc-domain 11 proteins immobilised by antibody capture (CM5 chip containing monoclonal mouse anti-human IgG antibody immobilised by amine coupling). Measurements were carried out at 25° C. in HBS-EP buffer (pH 7.4).
(§2) Final kinetic analysis of mutants by SPR was conducted using a Biacore T200 biosensor at 25° C. in either HBS-EP (10 mM HEPES pH 7.4, 150 mM NaCl, 3 mM EDTA, and 0.005% (v/v) surfactant P20) or MES-EP (20 mM MES pH 6.5, 150 mM NaCl, 3 mM EDTA, and 0.005% (v/v) surfactant P20) at a flow-rate of 40 μL min⁻¹. […] For the analysis of the Fc-domain 11^AB5 interaction, approximately 50 RU of a biotinylated IGF2:biotinylated ubiquitin mixture (1:8 proportion) was immobilized on the CM5-streptavidin chip. This interaction was also analysed by immobilizing the Fc-domain 11^AB5 and Fc-domain 11^AB5-RHH (or Fc-domain 11^I1572A as control) by Human Antibody Capture (monoclonal mouse anti-human IgG antibody immobilised on a CM5 chip by amine coupling, GE Healthcare) with and without human IgG1 Fc fragment (Bethyl Laboratories, UK) in the control flow cell. […] T200 BiaEvaluation software (GE Healthcare) was used to fit the resulting curves according to a 1:1 binding model. Steady state affinities were determined using the kinetic data, taking the response average at 5 seconds before injection end and for 5 seconds average. Thermodynamic data was performed across the temperature range of 10° C. to 30° C., van't Hoff and Erying plots generated and ΔH, −TΔS and ΔG values determined as previously described.

[3] = molecular target: pro-IGF2^1-104 (UniProt P01344 25-128); assay: as above
Protocol: as §1, §2

[4] = molecular target: T1, human IGF2^1-67 (mature insulin-like …); assay: as above
Protocol: as §1, §2

[5] = molecular target: T1, human IGF2^1-67 (mature insulin-like …); assay: SPR steady state, biotin-IGF2 on chip
Protocol: as §2

[6] = molecular target: T1, human IGF2^1-67 (mature insulin-like …); assay: SPR steady state, biotin-IGF2 on chip, pH 7.4
Protocol: as §2

[7] = molecular target: T1, human IGF2^1-67 (mature insulin-like …); assay: SPR
From the text: Surface plasmon resonance (SPR) binding analysis of recombinant M6P/IGF2R domain 11 mutants interaction with IGF2. Kon indicates association (on) rate; koff, dissociation (off) rate; RU, response units. Binding to IGF2 assessed with BIAcore T200 using purified biotinylated IGF2 and IGF1 on a streptavidin biosensor chip. Recombinant proteins were expressed either in E. coli and/or P. pastoris. All the mutants in the FG and CD loops are on the domain 11^AB5 background for the AB loop unless otherwise stated. All experiments were carried out at 25° C. in HBS-EP buffer (pH 7.4), were repeated 2-5 times on two independent BIAcore chips. nd=not determined. Data for KD expressed as mean of each experiment, and means of kon and koff are shown.
as §2, with “model.” for “model. Steady state affinities were determined using the kinetic data, taking the response average at 5 seconds before injection end and for 5 seconds average. Thermodynamic data was performed across the temperature range of 10° C. to 30° C., van't Hoff and Erying plots generated and ΔH, −TΔS and ΔG values determined as previously described.”

[8] = molecular target: T1, human IGF2^1-67 (mature insulin-like …); assay: SPR kinetic, biotin-IGF2 on chip
Protocol: as §2

[9] = molecular target: T1, human IGF2^1-67 (mature insulin-like …); assay: SPR (Biacore T200, 25 °C, HBS-EP pH 7.4); ΔΔG° = RT ln(KD mutant / KD domain 11^AB3); box AB+FG
Protocol: (§3) Boxes show the change in the binding free energy contribution, ΔΔGº, for the indicated mutants. The loop/s that contains the mutation/s is indicated in each box. The ΔΔGº values were calculated as ΔΔGº=ΔGº domain 11^mutant−ΔGº domain 11^AB3=RTln(KD domain 11^mutant/KD domain 11^AB3). Additive and non-additive contributions of single point mutations are shown when calculated with a box solid line and dashed line, respectively.
as §2, with “average.” for “average. Thermodynamic data was performed across the temperature range of 10° C. to 30° C., van't Hoff and Erying plots generated and ΔH, −TΔS and ΔG values determined as previously described.”

[10] = molecular target: T1, human IGF2^1-67 (mature insulin-like …); assay: SPR kinetic, biotin-IGF2 on chip, pH 7.4
Protocol: as §2

[11] = molecular target: T1, human IGF2^1-67 (mature insulin-like …); assay: SPR, biotin-IGF2 on chip, pH 7.4
[12] = molecular target: T1, human IGF2^1-67 (mature insulin-like …); assay: SPR kinetic, biotin-IGF2 on chip, pH 7.4; remark: listed apart in the source
Outline: (§4)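 Biotinylated IGF2 captured on streptavidin chip; recombinant M6P/IGF2R domain 11 mutants (E. coli or P. pastoris) injected at 25° C in HBS-EP, pH 7.4, 40 μL min⁻¹. Kinetics fitted to 1:1 model; steady-state KD from 5 s response averages before injection end; 2-5 repeats on two chips.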

[13] = molecular target: T1, human IGF2^1-67 (mature insulin-like …); assay: SPR steady state, biotin-IGF2 on chip, pH 7.4; remark: listed apart in the source
Outline: as §4

[14] = molecular target: T1, human IGF2^1-67 (mature insulin-like …); assay: SPR (Biacore T200, 25 °C, HBS-EP pH 7.4); ΔΔG° = RT ln(KD mutant / KD domain 11^AB3); box AB+CD
Protocol: as §3
Final kinetic analysis of mutants by SPR was conducted using a Biacore T200 biosensor at 25° C. in either HBS-EP (10 mM HEPES pH 7.4, 150 mM NaCl, 3 mM EDTA, and 0.005% (v/v) surfactant P20) or MES-EP (20 mM MES pH 6.5, 150 mM NaCl, 3 mM EDTA, and 0.005% (v/v) surfactant P20) at a flow-rate of 40 μL min⁻¹. […] This interaction was also analysed by immobilizing the Fc-domain 11^AB5 and Fc-domain 11^AB5-RHH (or Fc-domain 11^I1572A as control) by Human Antibody Capture (monoclonal mouse anti-human IgG antibody immobilised on a CM5 chip by amine coupling, GE Healthcare) with and without human IgG1 Fc fragment (Bethyl Laboratories, UK) in the control flow cell. […] Steady state affinities were determined using the kinetic data, taking the response average at 5 seconds before injection end and for 5 seconds average.

Chain of pro-IGF2^1-104 (P01344 25-128 limits assumed): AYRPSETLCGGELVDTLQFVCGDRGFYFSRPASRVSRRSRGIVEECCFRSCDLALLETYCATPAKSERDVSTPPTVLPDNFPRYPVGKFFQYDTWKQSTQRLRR
T2 sequence (P01344 25-180 limits assumed): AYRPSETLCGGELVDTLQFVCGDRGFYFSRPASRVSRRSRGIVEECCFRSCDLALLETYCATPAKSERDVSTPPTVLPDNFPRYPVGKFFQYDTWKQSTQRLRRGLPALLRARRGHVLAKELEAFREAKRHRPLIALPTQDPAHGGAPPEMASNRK
T1 sequence (P01344 25-91): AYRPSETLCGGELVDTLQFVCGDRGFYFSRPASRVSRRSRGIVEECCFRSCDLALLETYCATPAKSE

B1: human IgG1 Fc-domain 11^AB5 fusion protein (Fc fusion)
chain: NEHDDCQVTNPSTGHLFDLSSLSGRAGFTAAYAKGWGVYMSICGENENCPPGVGACFGQTRISVGKANKRLRYVDQVLQLVYKDGSPCPSKSGLSYKSVISFVCRPEAGPTNRPMLISLDKQTCTLFFSWHTPLACEQAT
notes: Made in HEK293T; also called Fc-domain II^AB5; pHLSec-AB5-hIgG1; not shown: human IgG1 Fc
In the case of B1, the “IC50, cell viability of HT29/219 in serum free conditions” value [1] is reported as 1700 nM, the “IC50, cell viability of Hep3B in serum free conditions” value [1] is reported as 35500 nM and the “IC50, cell viability of Huh7 in serum free conditions” value [1] is reported as 1200 nM. It also gave a Kd [2] of 0.21 nM, a koff [2] of 0.0009 s⁻¹ and a kon [2] of 4.19e+06 M⁻¹ s⁻¹. The Kd [3] was 0.54 nM, the koff [3] was 0.0069 s⁻¹ and the kon [3] was 1.29e+07 M⁻¹ s⁻¹. It also gave a Kd [4] of 3.89 nM, a koff [4] of 0.025 s⁻¹ and a kon [4] of 6.47e+06 M⁻¹ s⁻¹.

B2: domain 11^AB3 P1597H (receptor)
chain: MKSNEHDDCQVTNPSTGHLFDLSSLSGRAGFTAAYSKSGVVYMSICGENENCPPGVGACFGQTRISVGKANKRLRYVDQVLQLVYKDGSHCPSKSGLSYKSVISFVCRPEAGPTNRPMLISLDKQTCTLFFSWHTPLACEQATECSV
notes: See m5; also called AB3 + 62B (FG-P1597H)
For B2, the Kd [5] was 1.76 nM, the Kd [6] was 1.76 nM and the “fold change of KD against domain 11^AB3” value [7] was 10 fold. The “fold reduction of koff against domain 11^AB3” value [7] was 4 fold, the Kd [8] was 1.23 nM and the koff [8] was 0.013 s⁻¹. The kon [8] was 1.06e+07 M⁻¹ s⁻¹, the ΔΔG [9] was -1.49 kcal/mol and the Kd [10] was 1.23 nM. The koff [10] was 0.013 s⁻¹ and the kon [10] was 1.06e+07 M⁻¹ s⁻¹.

B3: domain 11^AB3 P1597H HI^23D (receptor)
chain: B2 chain with D123H, K124F, T126S
notes: See m5; Only koff printed
B3 was tested, and the koff [11] was 0.012 s⁻¹.

B4: domain 11^AB5 P1597H (receptor)
chain: B2 chain with S36A, S38G, G39W, V40G
notes: See m5
B4 showed a Kd [6] of 2.79 nM, a ΔΔG [9] of -1.23 kcal/mol and a Kd [10] of 1.9 nM. The koff [10] was 0.007 s⁻¹ and the kon [10] was 3.68e+06 M⁻¹ s⁻¹.

B5: domain 11^AB5 Q1569R P1597H S1602H G1603K (receptor)
chain: B2 chain with S36A, S38G, G39W, V40G, Q62R, S95H, G96K
notes: See m5; Only koff printed; other cells np (no protein)
For B5, the koff [11] was 0.005 s⁻¹.

B6: domain 11^AB5 S1602H (receptor)
chain: B2 chain with S36A, S38G, G39W, V40G, H90P, S95H
notes: See m5
For B6, the Kd [12] was 3.19 nM, the koff [12] was 0.0112 s⁻¹ and the kon [12] was 3.61e+06 M⁻¹ s⁻¹. For the same binder, the “fold improvement of affinity” value [7] was no more than 2 fold, the Kd [13] was 5.44 nM and the ΔΔG [9] was -0.93 kcal/mol.

B7: domain 11^AB5 HI^23D (receptor)
chain: B2 chain with S36A, S38G, G39W, V40G, H90P, D123H, K124F, T126S
notes: as for B5
For B7, the koff [11] was 0.012 s⁻¹.

B8: domain 11^AB5 Q1569R P1597K S1602H G1603K (receptor)
chain: B2 chain with S36A, S38G, G39W, V40G, Q62R, H90K, S95H, G96K
notes: as for B5
For B8, the koff [11] was 0.008 s⁻¹.

B9: domain 11^AB5 Q1569R (receptor)
chain: B2 chain with S36A, S38G, G39W, V40G, Q62R, H90P
notes: See m5
Work on B9 yielded a ΔΔG [14] of -1.13 kcal/mol, a Kd [6] of 3.22 nM and a Kd [10] of 2.24 nM. It also gave a koff [10] of 0.0175 s⁻¹ and a kon [10] of 8.04e+06 M⁻¹ s⁻¹.

B10: domain 11^AB3 Q1569R (receptor)
chain: B2 chain with Q62R, H90P
notes: See m5; also called AB3 + 73E (CD-Q1569R)
With B10 the ΔΔG [14] was -1.12 kcal/mol, the Kd [5] was 3.15 nM and the Kd [6] was 3.15 nM. It also gave a Kd [8] of 2.3 nM, a koff [8] of 0.031 s⁻¹ and a kon [8] of 1.36e+07 M⁻¹ s⁻¹. The Kd [10] was 2.3 nM, the koff [10] was 0.031 s⁻¹ and the kon [10] was 1.36e+07 M⁻¹ s⁻¹.

B11: domain 11^AB5 G1603K (receptor)
chain: B2 chain with S36A, S38G, G39W, V40G, H90P, G96K
notes: See m5
Work on B11 yielded a Kd [12] of 2.73 nM, a koff [12] of 0.0121 s⁻¹ and a kon [12] of 4.66e+06 M⁻¹ s⁻¹. For the same binder, the “fold improvement of affinity” value [7] was no more than 2 fold, the Kd [13] was 4.54 nM and the ΔΔG [9] was -1.02 kcal/mol.
